Columns and labels:
Test in all cases: ITC
[1] = molecular target: Jun bZIP K258A;Fos bZIP R143A (human;human, UniProt P05412;P01100 252-315;137-200, K258A|R143A)
[2] = molecular target: Jun bZIP K268A;Fos bZIP R155A (human;human, UniProt P05412;P01100 252-315;137-200, K268A|R155A)
[3] = molecular target: Jun bZIP R261A;Fos bZIP K153A (human;human, UniProt P05412;P01100 252-315;137-200, R261A|K153A)
[4] = molecular target: Jun bZIP K273A;Fos bZIP R144A (human;human, UniProt P05412;P01100 252-315;137-200, K273A|R144A)
[5] = molecular target: Jun bZIP R261A;Fos bZIP R158A (human;human, UniProt P05412;P01100 252-315;137-200, R261A|R158A)
[6] = molecular target: Jun bZIP K268A;Fos bZIP R157A (human;human, UniProt P05412;P01100 252-315;137-200, K268A|R157A)
Jun-Jun bZIP K273A = Jun-Jun bZIP K273A (human, UniProt P05412 252-315, K273A)
Jun-Jun bZIP R263A = Jun-Jun bZIP R263A (human, UniProt P05412 252-315, R263A)
[7] = molecular target: Jun bZIP R270A;Fos bZIP R143A (human;human, UniProt P05412;P01100 252-315;137-200, R270A|R143A)
[8] = molecular target: Jun bZIP R272A;Fos bZIP K153A (human;human, UniProt P05412;P01100 252-315;137-200, R272A|K153A)
[9] = molecular target: Jun bZIP K268A;Fos bZIP R146A (human;human, UniProt P05412;P01100 252-315;137-200, K268A|R146A)
[10] = molecular target: Jun bZIP R272A;Fos bZIP R146A (human;human, UniProt P05412;P01100 252-315;137-200, R272A|R146A)
[11] = molecular target: Jun bZIP R259A;Fos bZIP K148A (human;human, UniProt P05412;P01100 252-315;137-200, R259A|K148A)
[12] = molecular target: Jun bZIP R263A;Fos bZIP R144A (human;human, UniProt P05412;P01100 252-315;137-200, R263A|R144A)
[13] = molecular target: Jun bZIP R272A;Fos bZIP R157A (human;human, UniProt P05412;P01100 252-315;137-200, R272A|R157A)
[14] = molecular target: Jun bZIP K258A;Fos bZIP R157A (human;human, UniProt P05412;P01100 252-315;137-200, K258A|R157A)
[15] = molecular target: Jun bZIP R263A;Fos bZIP K153A (human;human, UniProt P05412;P01100 252-315;137-200, R263A|K153A)
Sequence of Jun bZIP R263A;Fos bZIP K153A (P05412 252-315 R263A, chain 1 of 2): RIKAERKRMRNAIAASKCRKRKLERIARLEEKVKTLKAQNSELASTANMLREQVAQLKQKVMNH
Sequence of Jun bZIP R263A;Fos bZIP K153A (P01100 137-200 K153A, chain 2 of 2): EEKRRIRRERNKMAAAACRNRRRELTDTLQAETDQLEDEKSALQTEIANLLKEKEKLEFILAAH

Sequence of Jun bZIP K258A;Fos bZIP R157A (P05412 252-315 K258A, chain 1 of 2): as the sequence (P05412 252-315 R263A, chain 1 of 2) above, with K7A, A12R counted along it
Sequence of Jun bZIP K258A;Fos bZIP R157A (P01100 137-200 R157A, chain 2 of 2): as the sequence (P01100 137-200 K153A, chain 2 of 2) above, with A17K, R21A counted along it
Sequence of Jun bZIP K258A;Fos bZIP R143A (P05412 252-315 K258A, chain 1 of 2): as the sequence (P05412 252-315 R263A, chain 1 of 2) above, with K7A, A12R counted along it
Sequence of Jun bZIP K258A;Fos bZIP R143A (P01100 137-200 R143A, chain 2 of 2): as the sequence (P01100 137-200 K153A, chain 2 of 2) above, with R7A, A17K counted along it
Sequence of Jun-Jun bZIP K273A (P05412 252-315 K273A): as the sequence (P05412 252-315 R263A, chain 1 of 2) above, with A12R, K22A counted along it
Sequence of Jun bZIP K273A;Fos bZIP R144A (P05412 252-315 K273A, chain 1 of 2): as the sequence (P05412 252-315 R263A, chain 1 of 2) above, with A12R, K22A counted along it
Sequence of Jun bZIP K273A;Fos bZIP R144A (P01100 137-200 R144A, chain 2 of 2): as the sequence (P01100 137-200 K153A, chain 2 of 2) above, with R8A, A17K counted along it
Sequence of Jun bZIP R261A;Fos bZIP K153A (P05412 252-315 R261A, chain 1 of 2): as the sequence (P05412 252-315 R263A, chain 1 of 2) above, with R10A, A12R counted along it
Sequence of Jun bZIP R261A;Fos bZIP K153A (P01100 137-200 K153A, chain 2 of 2): as the sequence (P01100 137-200 K153A, chain 2 of 2) above
Sequence of Jun bZIP R261A;Fos bZIP R158A (P05412 252-315 R261A, chain 1 of 2): as the sequence (P05412 252-315 R263A, chain 1 of 2) above, with R10A, A12R counted along it
Sequence of Jun bZIP R261A;Fos bZIP R158A (P01100 137-200 R158A, chain 2 of 2): as the sequence (P01100 137-200 K153A, chain 2 of 2) above, with A17K, R22A counted along it
Sequence of Jun bZIP R259A;Fos bZIP K148A (P05412 252-315 R259A, chain 1 of 2): as the sequence (P05412 252-315 R263A, chain 1 of 2) above, with R8A, A12R counted along it
Sequence of Jun bZIP R259A;Fos bZIP K148A (P01100 137-200 K148A, chain 2 of 2): as the sequence (P01100 137-200 K153A, chain 2 of 2) above, with K12A, A17K counted along it
Sequence of Jun-Jun bZIP R263A (P05412 252-315 R263A): as the sequence (P05412 252-315 R263A, chain 1 of 2) above
Sequence of Jun bZIP R263A;Fos bZIP R144A (P05412 252-315 R263A, chain 1 of 2): as above
Sequence of Jun bZIP R263A;Fos bZIP R144A (P01100 137-200 R144A, chain 2 of 2): as the sequence (P01100 137-200 K153A, chain 2 of 2) above, with R8A, A17K counted along it
Sequence of Jun bZIP K268A;Fos bZIP R157A (P05412 252-315 K268A, chain 1 of 2): as the sequence (P05412 252-315 R263A, chain 1 of 2) above, with A12R, K17A counted along it
Sequence of Jun bZIP K268A;Fos bZIP R157A (P01100 137-200 R157A, chain 2 of 2): as the sequence (P01100 137-200 K153A, chain 2 of 2) above, with A17K, R21A counted along it
Sequence of Jun bZIP K268A;Fos bZIP R155A (P05412 252-315 K268A, chain 1 of 2): as the sequence (P05412 252-315 R263A, chain 1 of 2) above, with A12R, K17A counted along it
Sequence of Jun bZIP K268A;Fos bZIP R155A (P01100 137-200 R155A, chain 2 of 2): as the sequence (P01100 137-200 K153A, chain 2 of 2) above, with A17K, R19A counted along it
Sequence of Jun bZIP K268A;Fos bZIP R146A (P05412 252-315 K268A, chain 1 of 2): as the sequence (P05412 252-315 R263A, chain 1 of 2) above, with A12R, K17A counted along it
Sequence of Jun bZIP K268A;Fos bZIP R146A (P01100 137-200 R146A, chain 2 of 2): as the sequence (P01100 137-200 K153A, chain 2 of 2) above, with R10A, A17K counted along it
Sequence of Jun bZIP R270A;Fos bZIP R143A (P05412 252-315 R270A, chain 1 of 2): as the sequence (P05412 252-315 R263A, chain 1 of 2) above, with A12R, R19A counted along it
Sequence of Jun bZIP R270A;Fos bZIP R143A (P01100 137-200 R143A, chain 2 of 2): as the sequence (P01100 137-200 K153A, chain 2 of 2) above, with R7A, A17K counted along it
Sequence of Jun bZIP R272A;Fos bZIP R146A (P05412 252-315 R272A, chain 1 of 2): as the sequence (P05412 252-315 R263A, chain 1 of 2) above, with A12R, R21A counted along it
Sequence of Jun bZIP R272A;Fos bZIP R146A (P01100 137-200 R146A, chain 2 of 2): as the sequence (P01100 137-200 K153A, chain 2 of 2) above, with R10A, A17K counted along it
Sequence of Jun bZIP R272A;Fos bZIP R157A (P05412 252-315 R272A, chain 1 of 2): as the sequence (P05412 252-315 R263A, chain 1 of 2) above, with A12R, R21A counted along it
Sequence of Jun bZIP R272A;Fos bZIP R157A (P01100 137-200 R157A, chain 2 of 2): as the sequence (P01100 137-200 K153A, chain 2 of 2) above, with A17K, R21A counted along it
Sequence of Jun bZIP R272A;Fos bZIP K153A (P05412 252-315 R272A, chain 1 of 2): as the sequence (P05412 252-315 R263A, chain 1 of 2) above, with A12R, R21A counted along it
Sequence of Jun bZIP R272A;Fos bZIP K153A (P01100 137-200 K153A, chain 2 of 2): as the sequence (P01100 137-200 K153A, chain 2 of 2) above

B1: TRE duplex 15-mer (dsDNA)
DNA 1: CGCGTGACTCACCCC
DNA 2: GGGGTGAGTCACGCG
- Kd [1]: 860 ± 70 nM
- Kd [2]: 1390 ± 80 nM
- Kd [3]: 610 ± 50 nM
- Kd [4]: 3590 ± 300 nM
- Kd [5]: 760 ± 20 nM
- Kd [6]: 600 ± 30 nM
- Kd (Jun-Jun bZIP K273A): 6520 ± 750 nM
- Kd (Jun-Jun bZIP R263A): 2140 ± 100 nM
- Kd [7]: 1600 ± 50 nM
- Kd [8]: 960 ± 110 nM
- Kd [9]: 420 ± 20 nM
- Kd [10]: 750 ± 100 nM
- Kd [11]: 2260 ± 180 nM
- Kd [12]: 4210 ± 200 nM
- Kd [13]: 430 ± 20 nM
- Kd [14]: 1500 ± 80 nM
- Kd [15]: 1150 ± 80 nM

From paper PMC3154423
